Reference: FireProtDB (doi:10.1006/jmbi.1999.2772)

Details: Thermotoga maritima (strain ATCC 43589 / DSM 3109 / JCM 10099 / NBRC 100826 / MSB8), Thermal, DSC
[1] = pH 4, Sodium acetate 20 mM, reversible: yes
[2] = pH 4.5, Sodium acetate 20 mM, reversible: yes(94%)
[3] = pH 4.8, Sodium acetate 20 mM, reversible: yes(91%)
[4] = pH 5.7, Sodium cacodylate-HCl 20 mM, reversible: yes(97%)
[5] = pH 6, Sodium cacodylate-HCl 20 mM, reversible: yes(98%)
[6] = pH 6.1, Sodium cacodylate-HCl 20 mM, reversible: yes(97%)
[7] = pH 6.35, Sodium cacodylate-HCl 20 mM, reversible: yes
[8] = pH 6.75, Sodium cacodylate-HCl 20 mM, reversible: yes
[9] = pH 7, Sodium cacodylate-HCl 20 mM, reversible: yes(95%)
[10] = pH 7.2, Sodium phosphate 20 mM, reversible: yes(97%)
[11] = pH 7.25, Sodium cacodylate-HCl 20 mM, reversible: yes(98%)
[12] = pH 7.4, Sodium phosphate 20 mM, reversible: yes(98%)
[13] = pH 7.5, Sodium phosphate 20 mM, reversible: yes(97%)
[14] = pH 8.1, borate-NaOH 20 mM, reversible: yes(99%)
[15] = pH 8.4, borate-NaOH 20 mM, reversible: yes(97%)
[16] = pH 8.5, borate-NaOH 20 mM, reversible: yes(98%)
[17] = pH 8.9, borate-NaOH 20 mM, reversible: yes

Cold shock-like protein wild type, O54310, sequence (O54310 whole entry): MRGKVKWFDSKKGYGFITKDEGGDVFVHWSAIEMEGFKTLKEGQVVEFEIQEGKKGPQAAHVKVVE

Cold shock-like protein wild type, O54310
Tm [1]: 87.9 °C | heat capacity change of unfolding [1]: 0.36 kcal/mol/K | unfolding enthalpy (calorimetric) [1]: 50.1 kcal/mol | Tm [2]: 91.6 °C | heat capacity change of unfolding [2]: 0.05 kcal/mol/K | unfolding enthalpy (calorimetric) [2]: 56.2 kcal/mol | Tm [3]: 94.1 °C | heat capacity change of unfolding [3]: 0.22 kcal/mol/K | unfolding enthalpy (calorimetric) [3]: 62 kcal/mol | unfolding enthalpy (van 't Hoff) [3]: 57 kcal/mol | Tm [4]: 93.3 °C | heat capacity change of unfolding [4]: 0.08 kcal/mol/K | unfolding enthalpy (calorimetric) [4]: 71.9 kcal/mol | unfolding enthalpy (van 't Hoff) [4]: 68.3 kcal/mol | Tm [5]: 92.1 °C | heat capacity change of unfolding [5]: 0.17 kcal/mol/K | unfolding enthalpy (calorimetric) [5]: 74.6 kcal/mol | unfolding enthalpy (van 't Hoff) [5]: 71 kcal/mol | Tm [6]: 91.2 °C | heat capacity change of unfolding [6]: 0.55 kcal/mol/K | unfolding enthalpy (calorimetric) [6]: 69.5 kcal/mol | unfolding enthalpy (van 't Hoff) [6]: 64.5 kcal/mol | Tm [7]: 89.6 °C | heat capacity change of unfolding [7]: 0.5 kcal/mol/K | unfolding enthalpy (calorimetric) [7]: 68 kcal/mol | unfolding enthalpy (van 't Hoff) [7]: 63 kcal/mol | Tm [8]: 85.8 °C | heat capacity change of unfolding [8]: 0.18 kcal/mol/K | unfolding enthalpy (calorimetric) [8]: 65 kcal/mol | unfolding enthalpy (van 't Hoff) [8]: 58.3 kcal/mol | Tm [9]: 82 °C | heat capacity change of unfolding [9]: 0.36 kcal/mol/K | unfolding enthalpy (calorimetric) [9]: 62.6 kcal/mol | unfolding enthalpy (van 't Hoff) [9]: 60.8 kcal/mol | Tm [10]: 83.1 °C | heat capacity change of unfolding [10]: 0.22 kcal/mol/K | unfolding enthalpy (calorimetric) [10]: 65.3 kcal/mol | unfolding enthalpy (van 't Hoff) [10]: 61 kcal/mol | Tm [11]: 82.8 °C | heat capacity change of unfolding [11]: 0.4 kcal/mol/K | unfolding enthalpy (calorimetric) [11]: 61.3 kcal/mol | unfolding enthalpy (van 't Hoff) [11]: 57.5 kcal/mol | Tm [12]: 80.8 °C | heat capacity change of unfolding [12]: 0.38 kcal/mol/K | unfolding enthalpy (calorimetric) [12]: 60.8 kcal/mol | unfolding enthalpy (van 't Hoff) [12]: 55.7 kcal/mol | Tm [13]: 81.1 °C | heat capacity change of unfolding [13]: 0.11 kcal/mol/K | unfolding enthalpy (calorimetric) [13]: 54.4 kcal/mol | unfolding enthalpy (van 't Hoff) [13]: 50.4 kcal/mol | Tm [14]: 81 °C | heat capacity change of unfolding [14]: 0.01 kcal/mol/K | unfolding enthalpy (calorimetric) [14]: 54.7 kcal/mol | unfolding enthalpy (van 't Hoff) [14]: 51 kcal/mol | Tm [15]: 77.5 °C | heat capacity change of unfolding [15]: 0.5 kcal/mol/K | unfolding enthalpy (calorimetric) [15]: 56.1 kcal/mol | Tm [16]: 77.6 °C | heat capacity change of unfolding [16]: 0.06 kcal/mol/K | unfolding enthalpy (calorimetric) [16]: 53.9 kcal/mol | unfolding enthalpy (van 't Hoff) [16]: 51.7 kcal/mol | Tm [17]: 75.5 °C | heat capacity change of unfolding [17]: 0.5 kcal/mol/K | unfolding enthalpy (calorimetric) [17]: 56.1 kcal/mol
